Data on 1 molecule can be found in patent publication US20110086767A1, “MUTANTS OF GLYCOSIDE HYDROLASES AND USES THEREOF FOR SYNTHESIZING COMPLEX OLIGOSACCHARIDES AND DISACCHARIDE INTERMEDIATES” (Institut Pasteur, priority 2008, published 2011).

Common to all, as to type: biochemical
Series [1] in a line: Glucosylation of α-D-GlcpNAc-OAll by purified F290D, F290K and ASNPwt (146 mM sucrose + 146 mM acceptor). As for the experimental part: All assays were performed at 30° C. in 50 mM Tris buffer, pH=7.0. For the acceptor reactions, F290D, F290K and ASNPwt (1G5A) were tested on α-D-GlcpNAc-OAll.
Comparison of products synthesized by wild-type and AS variants. Reactions were performed in the presence of 146 mM sucrose alone or supplemented with 146 mM acceptor. The purified wild-type or mutated GST/AS were employed at 0.5 U/mL. The reactions were stopped by heating at 95° C. for 5 min. The final mixture was centrifuged at 18 000 g for 10 min, filtered on 0.22 μm membrane and analyzed by HPLC, as previously described.
Soluble and insoluble oligosaccharides produced during the reaction were identified by HPAEC using a Dionex Carbo-Pack PA100 column at 30° C. Before analysis, the insoluble fraction was solubilized in KOH at a final total sugar concentration of 10 g/kg. Mobile phase (150 mM NaOH) was set at 1 mL/min flow rate with a sodium acetate gradient (going from 6 to 500 mM within 120 min). Detection was performed using a Dionex ED40 module with a gold working electrode and an Ag/AgCl pH reference. Note that α-D-GlcpNAc-OAll (acceptor) and its derivatives are not oxidable products and thus are not detectable by HPAEC. Sucrose, glucose, fructose, α-D-GlcpNAc-OAll (acceptor) and its derivatives (glucosylation products) were quantified by HPLC, as previously described

Series [2] is described as follows: Kinetics of F290K and ASNPwt towards sucrose. As for the experimental part:
Enzyme assays were carried out in a total volume of 2 mL containing pure enzyme (0.115 mg and 0.106 mg when using ASNPwt and F290K, respectively). Catalytic efficiency (Eff=kcat/KM) of ASNPwt and F290K variant was determined with both sucrose (D=Donor) and α-D-GlcpNAc-OAll (A=Acceptor) as variable substrates. […] For the determination of the catalytic efficiency for A, D was held constant at 250 mM and A was varied between 0 and 250 mM. Experiments were performed until A and D solubility limits were reached. For each experiment, the reaction velocity corresponding to the acceptor glucosylation was determined by the formation of α-D-Glcp-(1→4)-α-D-GlcpNAc-OAll (called Vi(Dp2)), corresponding to the kinetics of the reaction of interest.
Initial velocities were fitted to the Michaelis-Menten equation using Sigma-Plot. As saturation was not achieved with the mutant, efficiency was calculated by linear regression analysis of the velocity versus substrate concentration plot. Aliquots (200 μL) were removed between 0 and 60 min (at which time product formation was still linear with respect to time), heated at 95° C. for 5 min and centrifuged at 18 000 g for 5 min. The final mixtures were filtered on a 0.22 um membrane and analyzed using HPLC material previously described. […]

A short description of series [3]: Enzymatic glucosylation of D-GlcpNAc derivatives: β-D-GlcpNAc-OMe. The settings on record: sucrose:acceptor 1:1 (146 mM); estimated according to peak areas. Here is the method: The mutant F290K and the ASNPwt were tested on other D-GlcNAc derivatives (α-D-GlcpNAc-OMe, β-D-GlcpNAc-OMe, β-D-GlcpNAc-Oallyl and D-GlcNHTCA) used as potential acceptors. The enzymatic reaction was carried out using sucrose as donor and D-GlcNAc derivative as acceptor in a 1:1 ratio (146 mM)
Efficiency of the glucosylation reaction was evaluated by HPLC analysis of the acceptor reaction product synthesized a Biorad HPLC Carbohydrate Analysis column (HPX-87K column (300×7.8 mm))
Percentages of glucosylation rates were estimated according to peak areas as no reference was available.

The mark [4] stands for this setting: purified enzyme, Sucrose=Acceptor=146 mM, compared with ASNPwt.

B1: F290K: single mutant F290K of N. polysaccharea amylosucrase 1G5A (protein)
chain: SPNSQYLKTRILDIYTPEQRAGIEKSEDWRQFSRRMDTHFPKLMNELDSVYGNNEALLPMLEMLLAQAWQSYSQRNSSLKDIDIARENNPDWILSNKQVGGVCYVDLFAGDLKGLKDKIPYFQELGLTYLHLMPLFKCPEGKSDGGYAVSSYRDVNPALGTIGDLREVIAALHEAGISAVVDFIFNHTSNEHEWAQRCAAGDPLFDNFYYIFPDRRMPDQYDRTLREIFPDQHPGGFSQLEDGRWVWTTFNSFQWDLNYSNPWVFRAMAGEMLFLANLGVDILRMDAVAKIWKQMGTSCENLPQAHALIRAFNAVMRIAAPAVFFKSEAIVHPDQVVQYIGQDECQIGYNPLQMALLWNTLATREVNLLHQALTYRHNLPEHTAWVNYVRSHDDIGWTFADEDAAYLGISGYDHRQFLNRFFVNRFDGSFARGVPFQYNPSTGDCRVSGTAAALVGLAQDDPHAVDRIKLLYSIALSTGGLPLIYLGDEVGTLNDDDWSQDSNKSDDSRWAHRPRYNEALYAQRNDPSTAAGQIYQDLRHMIAVRQSNPRFDGGRLVTFNTNNKHIIGYIRNNALLAFGNFSEYPQTVTAHTLQAMPFKAHDLIGGKTVSLNQDLTLQPYQVMWLEIA
On to B1, for which, in series [1] (146 mM sucrose supplemented with 146 mM α-D-GlcpNAc-OAll, t=24 h), the “maltooligosaccharide formation on addition of acceptor” value is given as “totally suppressed”. In series [1] (setting [4]), the “times more efficient for α-D-GlcpNAc-OAll glucosylation” value is reported as 10 times and the “times more efficient to form α-D-Glcp-(1→4)-D-GlcpNAc-OAll” value was 20 times. For the same molecule, the “decrease of kcat/Km in the presence of sucrose alone” value in series [2] (sucrose alone, compared with ASNPwt, linear regression) is 40 fold. The saturation with sucrose entry in series [2] (sucrose varied between 0 and 600 mM) is on record as “could not be saturated”. Further, the “glucosylation of acceptor β-D-GlcpNAc-OMe” value in series [3] was 65-70%.
